What all share (test): HuProt Human Proteome Microarray, off-target human proteins
What all share (format): binding
Holding throughout (parameters): key to Z Score: Z = (F635 − mean F635 of all spots) / SD; average of duplicate spots

For test [1], the target named is T1, human proteins on HuProt Human Proteome Microarray (Homo sapiens, UniProt Q14847).
T1 construct: purchased CDI Labs (HuProt); host or cells: yeast S. cerevisiae
T1 sequence (Q14847 1-261): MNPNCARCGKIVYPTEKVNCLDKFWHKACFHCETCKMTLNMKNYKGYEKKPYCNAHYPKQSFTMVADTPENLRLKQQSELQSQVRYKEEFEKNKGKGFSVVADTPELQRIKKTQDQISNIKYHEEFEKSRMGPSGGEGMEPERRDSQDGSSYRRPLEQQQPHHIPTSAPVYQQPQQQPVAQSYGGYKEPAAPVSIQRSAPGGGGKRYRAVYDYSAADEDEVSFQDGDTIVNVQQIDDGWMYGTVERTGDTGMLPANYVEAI
The following applies: Protein: LASP1. The text has this:
(§1) The HuProt™ Human Proteome Microarray provides the largest number of unique, full-length, individually purified human proteins on a single microscope slide. It provides >21,000 unique human proteins, isoform variants, and protein fragments—covering 16,794 unique genes. This includes 15,889 of the 19,613 canonical human proteins described in the Human Protein Atlas, with broad coverage across protein subclasses. This allows thousands of interactions to be profiled in a high-throughput manner. The full-length recombinant proteins are expressed in the yeast S. cerevisiae, purified, and printed on glass slides in duplicate along with a set of control proteins (GST, BSA, histones, IgG, etc.). The full list of the different proteins included in the HuProt™ Human Proteome Microarray as used in this Example is provided as “List B” in the Research Disclosures publication (ISSN 0374-4353, Questel Ireland Ltd) with database numbers 707018, 707019 and 707020, each entitled “Large scale protein arrange target protein identities” and each digitally published on 27 Jan. 2023, the contents of each of which are incorporated herein by reference in their entirety, fo the purposes of the disclosure of the proteins defined by “List B”. “List B” begins in Research Disclosures publication 707018, is continued in Research Disclosures publication 707019, and concludes Research Disclosures publications 707020, and so the three publications are to be read consecutively as a single disclosure of the “List B” proteins. The HuProt™ microarray is not restricted to a particular type of surface coating, although the default is glass coated with ultrathin nitrocellulose film for the non-covalent, yet irreversible, capture of active proteins to the surface.
(§2) Samples of humanised 7B1F3 and mouse 7B1F3 antibodies were analysed for binding specificities on HuProt™ human proteome arrays. A peptide with the sequence TDVLNQSKPVTL (“Peptide 3”) was added to the arrays at 0.1 mg/ml as a control.
(§3) After blocking, the arrays were probed with the antibody samples (0.1 μg/ml) at room temperature for 1 hour. Then the arrays were washed with TBST for 10 min×3 and probed with Alexa647-anti-human IgG Fc or Alexa647-anti-mouse IgG secondary antibodies under conditions optimized by CDI Labs for signal detection.
(§4) • Non-specific hits that directly bind to the secondary antibodies were eliminated from the analysis of the samples. • CDI software was used to quantify the specificity of each individual sample to specific proteins on the array based on Z Scores. • Z score is the average Z score of the duplicate spots of a given protein (each protein is printed in duplicate on a HuProt™ array). The Z score of each spot on a given array is calculated according to the algorithm below:
(§5) Z=[F635−F635(avg)]/F635(std) • F635(avg) and F635(std) are the average and standard deviation of the F635 values of all spots on the array, respectively. • S score is the difference of the Z Scores of a given protein and the one ranked next to it. If the S score of the top hit is >3, the antibody is considered to be highly specific for the top hit. • F635 is the average foreground signal intensity of 2 replicate spots of a given protein in the detection channel (635 nm). • B635 is the average background signal intensity of 2 replicate spots of a given protein in the detection channel (635 nm).

Test [2] addresses T2, human proteins on HuProt Human Proteome Microarray (Homo sapiens, UniProt Q96F63).
T2 construct: purchased CDI Labs (HuProt); host or cells: yeast S. cerevisiae
T2 sequence (Q96F63 1-343): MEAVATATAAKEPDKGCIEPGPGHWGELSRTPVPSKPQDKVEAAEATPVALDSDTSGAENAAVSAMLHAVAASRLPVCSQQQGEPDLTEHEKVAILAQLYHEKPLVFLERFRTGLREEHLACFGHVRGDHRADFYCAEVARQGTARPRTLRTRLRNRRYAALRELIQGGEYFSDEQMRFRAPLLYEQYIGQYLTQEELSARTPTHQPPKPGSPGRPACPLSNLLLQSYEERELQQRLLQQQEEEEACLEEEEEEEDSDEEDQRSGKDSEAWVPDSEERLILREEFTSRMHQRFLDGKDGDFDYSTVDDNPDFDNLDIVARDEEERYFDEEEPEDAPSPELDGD
To be noted: Protein: CCDC97.
Text: as §1, §2, §3, §4, §5

The target in test [3] is T3, human proteins on HuProt Human Proteome Microarray (Homo sapiens, UniProt Q9UK22).
T3 construct: purchased CDI Labs (HuProt); host or cells: yeast S. cerevisiae
T3 sequence (Q9UK22 1-296): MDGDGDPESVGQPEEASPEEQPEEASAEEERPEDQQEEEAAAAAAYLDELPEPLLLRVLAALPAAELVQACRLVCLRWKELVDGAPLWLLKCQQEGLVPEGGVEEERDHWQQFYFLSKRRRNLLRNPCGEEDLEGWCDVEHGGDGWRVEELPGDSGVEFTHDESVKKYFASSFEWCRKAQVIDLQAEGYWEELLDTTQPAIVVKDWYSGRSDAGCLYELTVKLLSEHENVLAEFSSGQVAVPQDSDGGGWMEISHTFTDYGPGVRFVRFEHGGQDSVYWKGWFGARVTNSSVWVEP
The following applies: Protein: FBXO2.
Text: as §1, §2, §3, §4, §5

One molecule from US20250296984A1, “THERAPEUTIC AND DIAGNOSTIC AGENTS AND USES THEREOF” (priority 2022, published 2025) can be followed below.

B1: 7B1F3: mouse IgG1 kappa antibody against US28 ECD1 Peptide-N; VH SEQ ID NO: 211, VL SEQ ID NO: 213 (antibody, V domains shown)
VH: EVQLQQSGAELAKPGASVKMSCKASGYTFTNYWMHWVKQRPGQGLEWIGYVNPRTGYTEYNQKFKDKATLTADKSSRTAYMQLSSLTSEDSAVYSCARILNGTGFAYWGQGTLVTVSA
VL: DIVLTQSPSSLTVSVGEKFTMSCKSSQSLLYSSNQKNYLAWYQQKPGQSPKLLIYWASTRESGVPDRFTGSGSGTDFTLAISSVKPEDLAIYYCQQYYSFPLTFGAGTKLEIK
modifications: Mature form of VH sequence of 7B1F3, without the leader sequence; Mature form of VL sequence of 7B1F3, without the leader sequence
Take B1: the F635 in test [1] was determined as 3681; in test [2], 2080; in test [3] it was 4683. For the same molecule, the “Z Score” value in test [1] turned out to be 10.575; in test [2], 5.922; in test [3] it was 13.486.
